Tested on: K4 kissing-loop RNA reporter
Test: apparent KD of K4 kissing-loop reporter; higher = weaker reporter binding
Settings: Eterna round: R107
Description: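 RNA-MaP round R107: designed RNA switches with theophylline, tryptophan, arginine or FMN aptamers are transcribed on-chip within common flanks. They are titrated with a labelled K4 kissing-loop RNA reporter in RNA-MaP buffer (100 mM Tris pH 7.5, 80 mM KCl, 4 mM MgCl2), without ligand or with the indicated ligand. Median apparent KD per design.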

[1] = input ligand: theophylline 20 uM
[2] = input ligand: tryptophan 2.4 mM
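Note: bound reporter read as fluorescence of individual clusters on recovered sequencing chips by microscopy, with normalized cluster intensities fitted with a binding model.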

Sequence | apparent KD of K4 kissing-loop reporter (input ligand: FMN 200 uM) | apparent KD of K4 kissing-loop reporter (input ligand: arginine 13.2 mM) | apparent KD of K4 kissing-loop reporter (input ligand: none) | apparent KD of K4 kissing-loop reporter [1] | apparent KD of K4 kissing-loop reporter [2]
UAAAAUAAAUAAUAGAGAUAAUUACUCGAAGGAGCGACGAAUUCGUCAGGUAGGUCGCGAGUGAUGUUCGCAAAUAUUAUCUCAU [AK3 Exc Arginine A] | 0.212 µM | 0.328 µM | 0.295 µM | 0.345 µM | 0.261 µM
UUUUAAAUGUCUGAUACCAGAGAAAAUAUAUGUAGUGAUGUUAUAUACAAAUUUAAUAAGCUCCCUUGGCAGCAGUAUGAAUUUU [AstrosExc-TheB#12] | 0.616 µM | 0.766 µM | 0.873 µM | 0.784 µM | 0.552 µM
AAUUUAUAUUUAUUCUUUAAAUGUUCAGAAGGAGCGUGAAUUAUCACAGGUAGGUCGCUGAGCUAGUGAUGUUAGCUAUAUACUA [JR_ExcArginiA_Sub007] | 0.0503 µM | 0.0953 µM | 0.0677 µM | 0.097 µM | 0.0475 µM
UGCGCUAUGUCCUAAAACGUCCUCCGGGAUACCAGAGUCUUUUUAUUCCCUUGGCAGCUUGAGUGAUGUUUGAUGCCGUUCUUGU [srrevmullin] | 0.364 µM | 0.215 µM | 0.366 µM | 0.287 µM | 0.315 µM
UCGCAAGAAUCACUGUGGAGGACCUUGGCCAAGGAUAUCAAAGGAUUGAGAAGGUGGCGCCAAGUGAUGUUUGGAUGCCGGGCAG [theeternabot_exclusion_KL_FMN_A_36] | 0.149 µM | 0.286 µM | 0.293 µM | 0.183 µM | 0.256 µM
UAUGAAGGUGGAGGAUAUUGAUUGAAUCUUGGUCUGGAGUGAUGUUCCGGGAAGCCUUGGAUUCAUCGAGAAGGCCAAGGAUAGU [Extra 1] | 0.123 µM | 0.269 µM | 0.307 µM | 0.263 µM | 0.198 µM
AGCAGUGAUGUUGCAUUUAAAAUGACCGAUACCAGUAUCGAUAGAUACCCUUGGCAGCGGAUUUCCGCAACGACUAGGAAACUAG [Ex Theophylline A K4 15] | 0.324 µM | 0.377 µM | 0.436 µM | 0.504 µM | 0.327 µM
CCCGCGGCGGGAAACCGUCGCGGGAAGGAAGGAGCGGCGAAGAAGCCAGGUAGGUCGCCUAUUGACAGUGAUGUUGUUAUAUAGA [#11] | 0.226 µM | 0.263 µM | 0.16 µM | 0.292 µM | 0.179 µM
GUUAUUCUAAACGCAGUAGUGAUGUUGAUGCGAGGACCGGUACGGCCGCCACUCGACUGCCGUCACGCCCGUCCAACAGCCGGAG [theeternabot_exclusion_KL_Trp_A_20] | 0.431 µM | 0.142 µM | 0.478 µM | 0.254 µM | 0.268 µM
AGAAAAGGGACGAUCGUCGAGUUGCCAGAAGGAGCGGUAAUUUUACCAGGUAGGUCGCUGGCCCAGUGAUGUUGGGCUUUUAAGA [Biisinaor] | 0.105 µM | 0.0965 µM | 0.125 µM | 0.133 µM | 0.0924 µM
UCUGAAUUAUCUGAUACCAGACUUUUUGUAUUUAUUAAAACUAGUGAUGUUAGUUUAUCUGUCCCUUGGCAGCAGUUUCUACAGA [JR_Nu_ExcTheophyB_Sub022] | 0.0799 µM | 0.0954 µM | 0.0838 µM | 0.0908 µM | 0.0725 µM
GGGAACUCUUACGAUACCAGCCGGAGUGAUGUUCCGCGCUUGGACGUAGUAACCCGCACCGGCCCUUGGCAGCGUGGAUCUUAUA [Esbedi] | 0.0899 µM | 0.0735 µM | 0.0739 µM | 0.0827 µM | 0.0831 µM
UUGUUUGGUUGAGAGGUUGGGCGAGAUGAUACCAGUAGAUAAGAAUACCCUUGGCAGCAUAAGAAAGAUAUAGUGAUGUUGUAUA [SSTheophA.N] | 0.566 µM | 0.386 µM | 0.553 µM | 0.525 µM | 0.478 µM
UGGAUAUAGUGAUGUUAUAUAGAGAGUGAUACCAGUUUAGAGAAGAACCCUUGGCAGCAUAAAGAAGUAUCAUUAGAGAAGAAUG [ExTheophyl.Ao] | 0.229 µM | 0.216 µM | 0.282 µM | 0.224 µM | 0.176 µM
GCCUACGAUGCAGGAUAUAGCUCGCGAGUGAUGUUCGCAGCUGUAUGGUAGUAAGCUUCCACGUGUCUAGAAGGGCAUCGUAGGC [#01 K4 FMN B Exclusion] | 0.131 µM | 0.0802 µM | 0.0936 µM | 0.0833 µM | 0.0887 µM
GAAAGAAAGAAUGAUACCAGACACCCGAGUGAUGUUCGGAGCAGAGUGAUGUUCUUUUAAGUCCCUUGGCAGCAUAAAAGAAAAG [whbob_SS_Theo_B_sa82] | 0.109 µM | 0.138 µM | 0.153 µM | 0.159 µM | 0.119 µM
